In patent CN107540747A:

Biological target: 人DLL4分子 (full-length human DLL4 on the cell surface) (human) (UniProt Q9NR61)
Assay: indirect immunofluorescence, flow cytometry on CHO/DLL4 cells

Chain of UniProt Q9NR61 (Q9NR61 27-685): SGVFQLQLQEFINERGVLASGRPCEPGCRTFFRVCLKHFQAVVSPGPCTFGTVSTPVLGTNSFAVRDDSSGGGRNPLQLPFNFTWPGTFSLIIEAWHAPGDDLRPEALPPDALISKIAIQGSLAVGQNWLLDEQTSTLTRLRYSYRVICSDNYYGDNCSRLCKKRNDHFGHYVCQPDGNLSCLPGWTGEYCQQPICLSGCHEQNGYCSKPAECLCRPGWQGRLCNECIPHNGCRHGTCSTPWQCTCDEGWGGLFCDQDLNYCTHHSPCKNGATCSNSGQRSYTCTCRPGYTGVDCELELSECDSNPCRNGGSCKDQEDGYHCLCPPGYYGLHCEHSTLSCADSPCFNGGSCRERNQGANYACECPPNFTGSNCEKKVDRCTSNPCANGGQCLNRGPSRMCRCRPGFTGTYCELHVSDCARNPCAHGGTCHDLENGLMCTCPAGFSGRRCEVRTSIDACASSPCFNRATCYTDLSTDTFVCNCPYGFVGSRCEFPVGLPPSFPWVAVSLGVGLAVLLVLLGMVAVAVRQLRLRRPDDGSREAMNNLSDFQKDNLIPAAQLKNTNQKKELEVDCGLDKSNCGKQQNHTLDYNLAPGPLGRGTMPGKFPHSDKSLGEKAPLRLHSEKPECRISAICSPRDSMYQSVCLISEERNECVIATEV

B1: 抗人DLL4单克隆抗体6F12 (antibody, mouse IgG2b, V domains shown)
VH: EVHVKQSGPELVKPGASVKMSCKASGYTFTSYLLHWVKQKPGQGLEWIGYIIPYNDGTRYNEKFKGKATLTSDKSSNTAYMELSSLTSEDSAVYYCAREGTGTGAFDYWGQGTSLTVSS
VL: DIVLTQSPAIMSASPGEKVTMTCRASSSVNYMYWYQQKPGSSPRLLIYDTSNLASGVPVRFSGSGSGTSYSLTISRMEAEDAATYYCQQWSSYPYTFGGGTKLEIK
  效价 (titer (1:x dilution)): > 10000
